From patent US20240124575A1 (SIMCERE ZAIMING PHARMACEUTICAL, published 2024)
Where two headings read alike, the source gives them in different places. Blank lines part the entries; values can stand above or below the binder they belong to.

How the values were obtained:
human CD33-C2-his [1] = molecular target: T1, human CD33-C2-his (human, UniProt P20138 136-260); assay: ELISA on coated human CD33-C2-his
T1 construct: expressed in HEK293E; also called hCD33-C2-his; human CD33 protein C2-domain; not shown: His tag
T1 sequence (P20138 other isoform, or with tags, fused parts or gaps limits assumed): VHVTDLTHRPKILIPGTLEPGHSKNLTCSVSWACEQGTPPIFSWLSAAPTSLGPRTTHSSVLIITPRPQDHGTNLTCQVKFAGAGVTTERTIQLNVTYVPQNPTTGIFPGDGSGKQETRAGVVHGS
Description: (§1) Plates were coated with human CD33-V-his (membrane distal end) and human CD33-C2-his (membrane proximal end), respectively, according to the ELISA method in Example 8. The VHH humanized antibodies were classified based on the membrane distal end and the membrane proximal end, as shown in FIGS. 20A-20J and Table 44, which allowed the classification of the VHH humanized antibodies into the following classes: […]

[2] = molecular target: T2, human CD33-His (extracellular domain Asp 18-His 259) (human, UniProt P20138 18-259); assay: competitive ELISA vs coated S006-NB147-225 2ug/mL; soluble 25ug/ml
T2 construct: range 18-259; bought protein; also called hCD33-his; human CD33 protein; not shown: His tag
T2 sequence (P20138 18-259 limits assumed): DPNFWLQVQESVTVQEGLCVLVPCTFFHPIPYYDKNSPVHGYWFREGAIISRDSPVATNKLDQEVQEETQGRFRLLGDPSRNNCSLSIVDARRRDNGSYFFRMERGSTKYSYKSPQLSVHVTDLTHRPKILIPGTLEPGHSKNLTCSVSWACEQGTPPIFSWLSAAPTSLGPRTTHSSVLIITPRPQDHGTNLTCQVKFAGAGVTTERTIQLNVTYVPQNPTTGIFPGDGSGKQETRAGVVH
Method: (§2) VHH antibodies and control antibodies with known epitopes were subjected to epitope classification with competitive ELISA. ELISA plates were coated with 2 μg/mL antibodies according to the method in Example 5.1; the human CD33-his protein was subjected to a gradient dilution from 30 μg/mL, and EC80 values (Tables 26-27) were calculated. ELISA plates were coated with 2 μg/mL antibodies; after 25 µg/mL of antibodies to be tested were added, a human CD33-his protein having an EC80 concentration corresponding to each of the antibodies to be tested was then added for incubation for 2 h. The plates were washed 5 times with PBS, then HRP-labeled anti-His antibodies (purchased from GenScript, Cat. No. A00612) were added for incubation for 1 h, and the plates were washed 5 times. A TMB substrate was added at 50 μL/well and incubated at room temperature for 10 min, then a stop solution (1.0 M HCl) was added at 50 μL/well. OD_{450 nm} values were read using an ELISA plate reader (Insight, purchased from PerkinElmer), and the competition rate between the antibodies was calculated according to the OD_{450 nm} values using a formula. The results are shown in FIGS. 12A-12B, the higher the value of the competition rate, the closer the epitopes to which two antibodies bind.

[3] = molecular target: T2, human CD33-His (extracellular domain …); assay: competitive ELISA vs coated S006-NB146-1 2ug/mL; soluble 25ug/ml
Method: as §2

[4] = molecular target: T2, human CD33-His (extracellular domain …); assay: competitive ELISA vs coated S006-NB146-3 2ug/mL; soluble 25ug/ml
Method: as §2

human CD33-V-his = molecular target: T3, human CD33-V-his (human, UniProt P20138 18-144); assay: ELISA on coated human CD33-V-his
T3 construct: expressed in HEK293E; also called hCD33-V-his; human CD33 protein V-domain; not shown: His tag
T3 sequence (P20138 other isoform, or with tags, fused parts or gaps limits assumed): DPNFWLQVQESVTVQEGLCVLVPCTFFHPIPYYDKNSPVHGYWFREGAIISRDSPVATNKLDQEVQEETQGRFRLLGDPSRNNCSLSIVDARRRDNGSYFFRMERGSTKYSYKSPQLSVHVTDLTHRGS

human CD33-C2-his [5] = molecular target: T1, human CD33-C2-his; assay: ELISA on coated human CD33-C2-his; remark: listed apart in the source
Description: as §1

human CD33-his protein [6] = molecular target: T4, human CD33-his protein (human, UniProt P20138 18-259); assay: competition ELISA, coated human CD33-his, vs Biotin-C33B904 at EC80; antibody 62.50 nM
T4 construct: range 18-259; bought protein; also called hCD33-his; recombinant human CD33-his; not shown: His tag
T4 sequence (P20138 18-259 limits assumed): as the sequence (P20138 18-259 limits assumed) above
Method: ELISA plates were coated with 2 μg/mL human CD33-his protein according to the method in Example 5.1; the Biotin-C331B904 antibody was subjected to a gradient dilution from 15 μg/mL, and EC80 values (0.18 μg/mL) were calculated. ELISA plates were coated with 2 μg/mL human CD33-his protein; starting from 40 μg/mL, the VHH antibodies to be tested were diluted in a 1:2 dilution ratio to obtain seven concentrations and added to the ELISA plates, and then Biotin-C331904 antibodies with the EC80 concentrations were added for incubation for 2 h. The plates were washed 5 times with PBS and then […] (purchased from Sigma, Cat. No. S2438) were added for incubation for 1 h, and the plates were washed 5 times. A TMB substrate was added at 50 μL/well and incubated at room temperature for 10 min, then a stop solution (1.0 M HCl) was added at 50 μL/well. OD_{450 nm} values were read using an ELISA plate reader (Insight, purchased from PerkinElmer). Then, analysis was performed by software (GraphPad Prism8), and data were fitted for curve plotting. The results are shown in FIGS. 13A-13B and Tables 28 and 29.

human CD33-his protein [7] = molecular target: T4, human CD33-his protein; assay: competition ELISA, coated human CD33-his, vs Biotin-C33B904 at EC80; antibody 500 nM
Method: (§3) The plate was sealed with a plastic film and incubated at 4° C. overnight, washed twice with PBS the next day, and a blocking solution [PBS+2% (w/w) BSA] was added for blocking at room temperature for 2 h. The blocking solution was discarded, and VHH-Fc antibody or negative control antibody serially diluted from 100 nM was added at 50 μL/well. After incubation at 37° C. for 2 h, the plate was washed 3 times with PBS. A secondary antibody labeled with HRP (horseradish peroxidase) (purchased from Sigma, Cat. No. A0170) was added. After incubation for 1 h at 37° C., the plate was washed 5 times with PBS. A TMB substrate was added at 50 μL/well. After incubation at room temperature for 10 min, a stop solution (1.0 N HCl) was added at 50 μL/well. The OD450 nm values were read on an ELISA plate reader (Multimode Plate Reader, EnSight, purchased from Perkin Elmer). The assay results for the binding of the VHH-Fc to hCD33-his by ELISA are shown in FIGS. 7A and 7B and Tables 11 and 12. […] The IgG control was hIgG1, and the data in the table are OD450 nm values.
(§4) ELISA plates were coated with 2 μg/mL human CD33-his protein according to the method in Example 5.1; the Biotin-C331B904 antibody was subjected to a gradient dilution from 15 μg/mL, and EC80 values (0.18 μg/mL) were calculated. […] OD_{450 nm} values were read using an ELISA plate reader (Insight, purchased from PerkinElmer). […]

human CD33-his protein [8] = molecular target: T4, human CD33-his protein; assay: competition ELISA, coated human CD33-his, vs Biotin-C33B904 at EC80; antibody 1.95 nM
Method: as §3, §4

EC50 (read off the curve) (human CD33-C2-his [1]): ~0.1 nM | inhibition rate [2]: 96% | inhibition rate [3]: 100% | inhibition rate [4]: -9% | binding result (human CD33-V-his): no binding (tested: 100 nM) | EC50 (read off the curve) (human CD33-C2-his [5]): ~0.2 nM
B1: C33B904 hIgG1 (antibody, V domains shown)
VH: EVQLVESGGGLVQPGRSLRLSCAASGFTFDDYAMHWVRQAPGKGLEWVSGIGWSGGSIVYADSVKGRFTISRDNAKNSLYLQMNSLRAEDTALYYCAKDSPYGDFFDYWGQGTLVTVSS
VL: DIVMTQSPDSLAVSLGERATINCKSSQTVFYSSNNKNYLAWYQQKPGQPPKLLISWASTRKSGVPDRFSGSGSGTDFTLTVSSLQAEDVAVYYCQHYYSTPYTFGQGTKLEIKR
notes: intact human IgG1; variable regions from US20190382481A1; also called C33B3904; C331B904

OD450 (Biotin-C33B904 signal) (human CD33-his protein [6]): 0.32 | OD450 (Biotin-C33B904 signal) (human CD33-his protein [7]): 0.08 | OD450 (Biotin-C33B904 signal) (human CD33-his protein [8]): 2.43
B2: C33B904 (antibody, human IgG1, kappa, V domains shown)
VH: B1 VH
VL: B1 VL
notes: control antibody, intact human IgG1 form; variable regions from US20190382481A1; also called C33B904 hIgG1; C331B904
